Target: ALPG/P priming receptor of the AB-1013, AB-1014 and AB-1015 circuits
Sequence (chain, as listed by the source): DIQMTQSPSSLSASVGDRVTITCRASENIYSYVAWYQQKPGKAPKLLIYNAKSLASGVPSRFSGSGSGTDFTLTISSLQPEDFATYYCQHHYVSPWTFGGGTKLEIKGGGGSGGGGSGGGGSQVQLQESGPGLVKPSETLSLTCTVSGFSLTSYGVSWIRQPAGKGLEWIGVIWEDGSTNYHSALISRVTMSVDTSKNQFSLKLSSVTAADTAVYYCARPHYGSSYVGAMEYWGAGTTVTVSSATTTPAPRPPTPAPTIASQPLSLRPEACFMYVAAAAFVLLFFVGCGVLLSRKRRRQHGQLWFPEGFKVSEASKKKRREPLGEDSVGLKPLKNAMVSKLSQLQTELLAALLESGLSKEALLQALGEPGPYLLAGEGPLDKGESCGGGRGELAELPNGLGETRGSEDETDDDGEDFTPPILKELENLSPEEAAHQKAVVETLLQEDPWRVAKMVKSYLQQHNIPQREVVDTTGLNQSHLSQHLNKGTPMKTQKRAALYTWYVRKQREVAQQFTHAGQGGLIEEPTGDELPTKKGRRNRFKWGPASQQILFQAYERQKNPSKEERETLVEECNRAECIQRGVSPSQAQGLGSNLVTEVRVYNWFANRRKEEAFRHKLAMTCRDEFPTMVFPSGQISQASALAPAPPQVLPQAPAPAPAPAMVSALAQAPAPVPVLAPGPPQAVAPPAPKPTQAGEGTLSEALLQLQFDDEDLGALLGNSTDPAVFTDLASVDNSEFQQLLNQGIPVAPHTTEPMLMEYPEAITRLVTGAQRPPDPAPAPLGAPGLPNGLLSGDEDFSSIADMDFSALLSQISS

B1: Alkaline Phosphatase, Germ Cell (ALPG) expressed on K562-ALPG and K562-ALPG/MSLN target cells (protein)
chain: IIPVEEENPDFWNRQAAEALGAAKKLQPAQTAAKNLIIFLGDGMGVSTVTAARILKGQKKDKLGPETFLAMDRFPYVALSKTYSVDKHVPDSGATATAYLCGVKGNFQTIGLSAAARFNQCNTTRGNEVISVMNRAKKAGKSVGVVTTTRVQHASPAGAYAHTVNRNWYSDADVPASARQEGCQDIATQLISNMDIDVILGGGRKYMFPMGTPDPEYPDDYSQGGTRLDGKNLVQEWLAKHQGARYVWNRTELLQASLDPSVTHLMGLFEPGDMKYEIHRDSTLDPSLMEMTEAALLLLSRNPRGFFLFVEGGRIDHGHHESRAYRALTETIMFDDAIERAGQLTSEEDTLSLVTADHSHVFSFGGYPLRGSSIFGLAPGKARDRKAYTVLLYGNGPGYVLKDGARPDVTESESGSPEYRQQSAVPLDGETHAGEDVAVFARGPQAHLVHGVQEQTFIAHVMAFAACLEPYTACDLAPRAGTTD
- time to peak of ALPG-dependent CAR conversion: reached a peak after around 100 hours of stimulation with the PrimeR antigen

From US20250250350
